Test results reported in PMC2171589 (The Journal of Cell Biology, 2005).

Tests used:
Assay in all cases: pull-down
[1] = biological target: point mutant GAP (R50K) as GST fusion protein (GST-R50K GAP) (UniProt Q62848 1-415, R50K)
[2] = biological target: ARFGAP1 as a GST fusion protein (GST-ARFGAP1) (UniProt Q62848 1-415)
[3] = biological target: ARFGAP1, wild-type, 6x-his tagged, soluble (UniProt Q62848 1-415)
[4] = biological target: His-tagged, full-length, R50K point mutant GAP (UniProt Q62848 1-415, R50K)
His-tagged, full-length, R50K point mutant GAP, sequence (Q62848 whole entry R50K): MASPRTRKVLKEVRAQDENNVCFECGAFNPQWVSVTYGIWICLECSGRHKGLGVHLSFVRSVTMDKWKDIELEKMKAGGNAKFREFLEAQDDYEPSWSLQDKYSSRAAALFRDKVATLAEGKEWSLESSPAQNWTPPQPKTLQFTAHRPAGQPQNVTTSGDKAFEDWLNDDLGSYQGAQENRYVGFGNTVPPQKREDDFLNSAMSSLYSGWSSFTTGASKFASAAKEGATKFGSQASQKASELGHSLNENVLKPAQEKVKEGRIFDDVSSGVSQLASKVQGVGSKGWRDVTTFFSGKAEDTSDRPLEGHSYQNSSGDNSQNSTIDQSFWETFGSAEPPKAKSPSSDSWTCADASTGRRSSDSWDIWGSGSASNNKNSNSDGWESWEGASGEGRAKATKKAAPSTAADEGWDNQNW

point mutant GAP (R50K) as GST fusion protein (GST-R50K GAP), sequence (Q62848 whole entry R50K, the tested form may be a part): as the sequence (Q62848 whole entry R50K) above
ARFGAP1 as a GST fusion protein (GST-ARFGAP1), sequence (Q62848 whole entry, the tested form may be a part): as the sequence (Q62848 whole entry R50K) above, with K50R counted along it
ARFGAP1, wild-type, 6x-his tagged, soluble, sequence (Q62848 whole entry): as the sequence (Q62848 whole entry R50K) above, with K50R counted along it

Row | binding result [1] | binding result [2] | binding result [3] | binding result [4] | Binder
1 | binds | binds |  |  | ARF1, full-length myristoylated form (ADP ribosylation factor 1) (natural protein, myristoylated) not shown
2 |  |  | binds | binds | KKLETFKKTN (domain or fragment) [GST-Wbp1 (cytoplasmic domain of Wbp1 fused to GST)]
